Experimental data as given in publication PMC2018723.

Target: viral nucleoprotein complex (HIV-1) (HIV-1 (pNL4-3))
Test: co-sedimentation; concentrated vif-defective HIV-1 virions from transfected HeLa cells loaded on a 20%/60% sucrose step gradient overlaid with 100 ul of 1% Triton X-100 (results: 0.1% Triton X-100) or PBS; SW55Ti, 60 min, 35,000 rpm, 4°C; fractions S1-S3 immunoblotted for APOBEC, CA, NC, MA

## APOBEC3G (from UniProt Q9HC16 1-384) (enzyme)
  percent of virus-associated A3G copurifying with viral NPCs: > 70%
